Measurements taken from article PMC7170535.

Key:
complement C3 (human) [1] = target: complement C3 (human)
complement C3 (human) [2] = test: SPR; ~2,000 RU C3 immobilised on a CM5 chip; rHC1 as analyte; HEPES-buffered saline pH 7.5, 0.05% Tween 20, 2 mM MnCl2
complement C3 (human) [3] = test: SPR; ~2,000 RU C3 immobilised on a CM5 chip by amide coupling; rHC1 or IαI as analyte; HEPES-buffered saline pH 7.5, 0.05% Tween 20, 2 mM Mg2+, 2 mM Mn2+; multicycle kinetics, 1:1 Langmuir

fluid phase alternative pathway C3 convertase (C3bBb) assay, proteolytic release of C3a quantified by SDS-PAGE; rHC1 at 0 to 27 μM (complement C3 (human) [1]): 980 nM | Kd (complement C3 (human) [2]): 473 nM | Kd (complement C3 (human) [3]): 364 nM
B1: recombinant inter-α-inhibitor heavy chain 1 (rHC1), wild type (natural protein)
chain: SKSSEKRQAVDTAVDGVFIRSLKVNCKVTSRFAHYVVTSQVVNTANEAREVAFDLEIPKTAFISDFAVTADGNAFIGDIKDKVTAWKQYRKAAISGENAGLVRASGRTMEQFTIHLTVNPQSKVTFQLTYEEVLKRNHMQYEIVIKVKPKQLVHHFEIDVDIFEPQGISKLDAQASFLPKELAAQTIKKSFSGKKGHVLFRPTVSQQQSCPTCSTSLLNGHFKVTYDVSRDKICDLLVANNHFAHFFAPQNLTNMNKNVVFVIDISGSMRGQKVKQTKEALLKILGDMQPGDYFDLVLFGTRVQSWKGSLVQASEANLQAAQDFVRGFSLDEATNLNGGLLRGIEILNQVQESLPELSNHASILIMLTDGDPTEGVTDRSQILKNVRNAIRGRFPLYNLGFGHNVDFNFLEVMSMENNGRAQRIYEDHDATQQLQGFYSQVAKPLLVDVDLQYPQDAVLALTQNHHKQYYEGSEIVVAGRIADNKQSSFKADVQAHGEGQEFSITCLVDEEEMKKLLRERGHMLENHVERLWAYLTIQELLAKRMKVDREERANLSSQALQMSLDYGFVTPLTSMSIRGMADQDGLKPTIDKPSEDSPPLEMLGPRRTFVLSALQPSPTHSSSNTQRLPDRVTGVDTD
